This is an account of results in publication PMC6350781 (Cell reports, 2018).

Where a chain is given by its changes, count along the chain named.

What all share (assay): pull-down
For assay [1], the target named is T1, GST-Fkbp5 (UniProt Q64378 1-456).
T1 sequence (looked up): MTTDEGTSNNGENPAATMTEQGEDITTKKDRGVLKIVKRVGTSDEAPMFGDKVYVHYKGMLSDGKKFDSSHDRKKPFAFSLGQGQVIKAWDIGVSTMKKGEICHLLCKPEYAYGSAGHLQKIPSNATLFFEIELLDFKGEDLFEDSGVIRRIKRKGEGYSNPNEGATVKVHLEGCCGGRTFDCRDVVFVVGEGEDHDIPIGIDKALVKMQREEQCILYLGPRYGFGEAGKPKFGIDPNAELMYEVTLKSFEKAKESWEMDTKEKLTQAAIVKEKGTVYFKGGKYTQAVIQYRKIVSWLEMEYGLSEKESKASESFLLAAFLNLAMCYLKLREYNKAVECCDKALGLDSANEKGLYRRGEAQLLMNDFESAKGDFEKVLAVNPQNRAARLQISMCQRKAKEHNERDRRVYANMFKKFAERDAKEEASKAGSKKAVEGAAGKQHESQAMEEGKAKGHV

Assay [2] addresses T2, GST-Fkbp5-F130Y (UniProt Q64378 1-456, F130Y).
T2 sequence (looked up): T1 sequence (looked up) with F130Y

The target of assay [3] is T3, GST-Fkbp5-Δ1 (UniProt Q64378 1-456, deletion of amino acids 50-138).
T3 sequence (looked up): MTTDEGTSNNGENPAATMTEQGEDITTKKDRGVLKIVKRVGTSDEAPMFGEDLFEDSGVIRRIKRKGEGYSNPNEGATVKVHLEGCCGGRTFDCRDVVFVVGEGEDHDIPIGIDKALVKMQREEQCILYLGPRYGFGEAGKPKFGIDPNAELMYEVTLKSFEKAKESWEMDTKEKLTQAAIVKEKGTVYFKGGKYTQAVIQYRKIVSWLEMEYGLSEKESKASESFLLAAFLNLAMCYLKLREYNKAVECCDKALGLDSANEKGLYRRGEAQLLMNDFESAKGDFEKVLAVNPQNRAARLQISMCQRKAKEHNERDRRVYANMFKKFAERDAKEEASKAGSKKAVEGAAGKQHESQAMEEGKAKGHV

Assay [4] concerns the target T4, GST-Fkbp5-W90L (UniProt Q64378 1-456, W90L).
T4 sequence (looked up): T1 sequence (looked up) with W90L

In assay [5] the target is T5, GST-Fkbp5-Δ2 (UniProt Q64378 1-456, deletion of amino acids 165-251).
T5 sequence (looked up): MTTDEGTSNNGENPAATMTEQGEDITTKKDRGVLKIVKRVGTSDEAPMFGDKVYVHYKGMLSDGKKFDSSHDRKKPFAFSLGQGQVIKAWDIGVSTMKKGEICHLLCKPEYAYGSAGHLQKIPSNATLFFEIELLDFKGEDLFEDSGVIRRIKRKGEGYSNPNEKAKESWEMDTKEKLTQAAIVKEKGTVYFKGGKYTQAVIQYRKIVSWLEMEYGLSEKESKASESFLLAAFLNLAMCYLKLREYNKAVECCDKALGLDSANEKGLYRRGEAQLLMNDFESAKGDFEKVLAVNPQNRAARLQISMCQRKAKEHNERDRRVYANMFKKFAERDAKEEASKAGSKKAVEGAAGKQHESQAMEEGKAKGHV

B1: Cdk4-Δ3-6×His (domain or fragment, UniProt P30285 1-200, looked up)
chain: MAATRYEPVAEIGVGAYGTVYKARDPHSGHFVALKSVRVPNGGAAGGGLPVSTVREVALLRRLEAFEHPNVVRLMDVCATSRTDRDIKVTLVFEHIDQDLRTYLDKAPPPGLPVETIKDLMRQFLSGLDFLHANCIVHRDLKPENILVTSNGTVKLADFGLARIYSYQMALTPVVVTLWYRAPEVLLQSTYATPVDMWSV
For the molecule B1, the binding result in assay [1] was “binds”.

B2: Cdk4-Δ1-6×His (domain or fragment, UniProt P30285 101-303, looked up)
chain: RTYLDKAPPPGLPVETIKDLMRQFLSGLDFLHANCIVHRDLKPENILVTSNGTVKLADFGLARIYSYQMALTPVVVTLWYRAPEVLLQSTYATPVDMWSVGCIFAEMFRRKPLFCGNSEADQLGKIFDLIGLPPEDDWPREVSLPRGAFAPRGPRPVQSVVPEMEESGAQLLLEMLTFNPHKRISAFRALQHSYLHKEESDAE
As to B2, the binding result in assay [1] is given as “binds”.

B3: Cdk4-Δ2-6×His (natural protein, UniProt P30285 1-303, looked up)
chain: MAATRYEPVAEIGVGAYGTVYKARDPHSGHFVALKSVRVPNGGAAGGGLPVSTVREVALLRRLEAFEHPNVVRLMDVCATSRTDRDIKVTLVFEHIDQDLGCIFAEMFRRKPLFCGNSEADQLGKIFDLIGLPPEDDWPREVSLPRGAFAPRGPRPVQSVVPEMEESGAQLLLEMLTFNPHKRISAFRALQHSYLHKEESDAE
In the case of B3, the binding result in assay [1] is recorded as “binds”.

B4: Cdk4-6×His (natural protein, UniProt P30285 1-303, looked up)
chain: MAATRYEPVAEIGVGAYGTVYKARDPHSGHFVALKSVRVPNGGAAGGGLPVSTVREVALLRRLEAFEHPNVVRLMDVCATSRTDRDIKVTLVFEHIDQDLRTYLDKAPPPGLPVETIKDLMRQFLSGLDFLHANCIVHRDLKPENILVTSNGTVKLADFGLARIYSYQMALTPVVVTLWYRAPEVLLQSTYATPVDMWSVGCIFAEMFRRKPLFCGNSEADQLGKIFDLIGLPPEDDWPREVSLPRGAFAPRGPRPVQSVVPEMEESGAQLLLEMLTFNPHKRISAFRALQHSYLHKEESDAE
Consider B4, for which the binding result in assay [2], in assay [3], in assay [1], in assay [4] and in assay [5] was “binds” in each case.
